Assay results from publication PMC7046716, “Oligomerization and characteristics of phosphoenolpyruvate carboxylase in Synechococcus PCC 7002” (Scientific Reports, 2020).
“And” between values parts separate entries of the source, which are not always exact repeats. Equal values may be shown once. Each block holds one compound with its values, some of them ahead of it.

What was measured:
[1] = system: T1, T_PEPc PCC 7002 (tetramer fraction of PEPc from Synechococcus PCC 7002); assay: malate dehydrogenase-coupled NADH assay, […] nm, Hanes-Woolf plot; format: biochemical, Picosynechococcus sp. PCC 7002; conditions: pH 8.0, 35 °C, SEC tetramer fraction
T1 construct: gene ppc; N-terminal Strep-tag kept, E. coli BL21, pETBB

[2] = system: T2, PEPc PCC 7002 (Strep-column purified, mixed oligomer population); assay: as above; format: biochemical, Picosynechococcus sp. PCC 7002; conditions: pH 7.5, 35 °C, mixed dimer/tetramer
T2 construct: gene ppc; N-terminal Strep-tag kept, E. coli BL21, pETBB; dimer/tetramer mixture purified with Mg2+

[3] = biological target: Phosphoenolpyruvate carboxylase (PEPc) from Synechococcus PCC 7002 (Synechococcus PCC 7002); assay: SEC; HiLoad 16/60 Superdex 200, 4 °C, TBS pH 8.0 with 5 mM NaHCO3; 500 µg protein at 0.87 mg/ml; dimer and tetramer peaks
[4] = biological target: Phosphoenolpyruvate carboxylase (PEPc) from Synechococcus PCC 7002 (Synechococcus PCC 7002); assay: SEC; HiLoad 16/60 Superdex 200, 4 °C, TBS pH 8.0 with 10 mM MgCl2 and 5 mM PEP; 500 µg protein at 0.87 mg/ml; dimer and tetramer peaks
[5] = biological target: Phosphoenolpyruvate carboxylase (PEPc) from Synechococcus PCC 7002 (Synechococcus PCC 7002); assay: SEC; HiLoad 16/60 Superdex 200, 4 °C, TBS pH 8.0 with 5 mM PEP; 500 µg protein at 0.87 mg/ml; dimer and tetramer peaks
[6] = biological target: Phosphoenolpyruvate carboxylase (PEPc) from Synechococcus PCC 7002 (Synechococcus PCC 7002); assay: SEC; HiLoad 16/60 Superdex 200, 4 °C, TBS (100 mM Tris-HCl, 150 mM NaCl) pH 8.0, no addition; 500 µg protein at 0.87 mg/ml, incubated 30 min at room temperature in the same buffer; dimer and tetramer peaks
[7] = biological target: Phosphoenolpyruvate carboxylase (PEPc) from Synechococcus PCC 7002 (Synechococcus PCC 7002); assay: SEC; HiLoad 16/60 Superdex 200, 4 °C, TBS pH 8.0 with 10 mM MgCl2 (Mg_10); 500 µg protein at 0.87 mg/ml; dimer and tetramer peaks
[8] = biological target: Phosphoenolpyruvate carboxylase (PEPc) from Synechococcus PCC 7002 (Synechococcus PCC 7002); assay: SEC; HiLoad 16/60 Superdex 200, 4 °C, TBS pH 8.0 with 25 mM MgCl2 (Mg_25); 500 µg protein at 0.87 mg/ml; dimer and tetramer peaks
[9] = biological target: Phosphoenolpyruvate carboxylase (PEPc) from Synechococcus PCC 7002 (Synechococcus PCC 7002); assay: SEC-SAXS; Shodex KW-403 4.6 ml column, room temperature, 50 µl protein at 6.5 or 0.87 mg/ml in TBS pH 8.0 or TBS with 25 mM MgCl2; beamline B21, Diamond Light Source; three peaks analysed separately
[10] = biological target: Phosphoenolpyruvate carboxylase (PEPc) from Synechococcus PCC 7002 (Synechococcus PCC 7002); assay: SEC; HiLoad 16/60 Superdex 200, 4 °C, TBS pH 8.0 with 10 mM MgCl2, 5 mM NaHCO3 and 5 mM PEP (in vitro reaction); 500 µg protein at 0.87 mg/ml; dimer and tetramer peaks
[11] = biological target: Phosphoenolpyruvate carboxylase (PEPc) from Synechococcus PCC 7002 (Synechococcus PCC 7002); assay: SEC; HiLoad 16/60 Superdex 200, 4 °C, TBS pH 8.0 with 10 mM MgCl2 and 5 mM NaHCO3; 500 µg protein at 0.87 mg/ml; dimer and tetramer peaks
[12] = biological target: Phosphoenolpyruvate carboxylase (PEPc) from Synechococcus PCC 7002 (Synechococcus PCC 7002); assay: SEC; HiLoad 16/60 Superdex 200, 4 °C, TBS pH 8.0 with 5 mM NaHCO3 and 5 mM PEP; 500 µg protein at 0.87 mg/ml; dimer and tetramer peaks
[13] = 10 mM MgCl2, co-substrate PEP (5 mM in the standard assay)
[14] = 10 mM MgCl2, co-substrate NaHCO3 (5 mM in the standard assay)

Km [1, 13]: 240 µM
Km [2, 13]: 970 µM
Compound: O=C(O)O [HCO3^−]

Km [1, 14]: 770 µM
Km [2, 14]: 1060 µM
Compound: C=C(OP(=O)(O)O)C(=O)O [PEP]

ratio tetramer:dimer (peak values) (tetramer:dimer) [3]: 0
stoichiometry N [3]: 2
ratio tetramer:dimer (peak values) (tetramer:dimer) [4]: 1.3
stoichiometry N [4]: 4 and 2
ratio tetramer:dimer (peak values) (tetramer:dimer) [5]: 1.1
stoichiometry N [5]: 4 and 2
ratio tetramer:dimer (peak values) (tetramer:dimer) [6]: 0
stoichiometry N [6]: 2
ratio tetramer:dimer (peak values) (tetramer:dimer) [7]: 0
stoichiometry N [7]: 2
ratio tetramer:dimer (peak values) (tetramer:dimer) [8]: 1.4
stoichiometry N [8]: 4 and 2
stoichiometry N [9]: 4 and 2
stoichiometry N [10]: 4 and 2
ratio tetramer:dimer (peak values) (tetramer:dimer) [11]: 0.8
stoichiometry N [11]: 4 and 2
ratio tetramer:dimer (peak values) (tetramer:dimer) [12]: 0.8
stoichiometry N [12]: 4 and 2
Compound: Phosphoenolpyruvate carboxylase (PEPc) from Synechococcus PCC 7002 (enzyme)
